The experiment concerns the target CD19 on NALM-6 cells (CD19+ B lineage, acute lymphoblastic leukemia) (UniProt P15391). The experiment is described as follows: cell-based or functional assay.
Sequence of UniProt P15391 (P15391 20-556 limits assumed): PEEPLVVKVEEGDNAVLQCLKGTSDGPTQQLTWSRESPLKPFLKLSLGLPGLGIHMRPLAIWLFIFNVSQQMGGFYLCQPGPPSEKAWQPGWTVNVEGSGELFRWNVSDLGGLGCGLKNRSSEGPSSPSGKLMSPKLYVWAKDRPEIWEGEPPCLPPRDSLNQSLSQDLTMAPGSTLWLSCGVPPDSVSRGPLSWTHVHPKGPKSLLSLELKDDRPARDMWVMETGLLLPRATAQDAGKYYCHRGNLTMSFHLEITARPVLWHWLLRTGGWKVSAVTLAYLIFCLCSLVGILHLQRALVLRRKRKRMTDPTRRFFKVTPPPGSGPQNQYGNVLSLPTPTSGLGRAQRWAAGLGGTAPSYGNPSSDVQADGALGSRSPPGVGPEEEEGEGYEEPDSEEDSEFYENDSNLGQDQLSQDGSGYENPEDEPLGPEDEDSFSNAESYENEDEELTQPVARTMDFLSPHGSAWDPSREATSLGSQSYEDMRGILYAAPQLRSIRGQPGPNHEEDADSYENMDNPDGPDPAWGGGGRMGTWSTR

Take “IgG1-based CAR (FMC63 scFv, IgG1-CH2-CH3 spacer, CD28 transmembrane and intracellular domains, and CD3zeta-signaling domain) (receptor)”: the killing efficacy against NALM-6 cells, 18 h co-culture, 2:1 (E:T) ratio (luciferase) was found to be 100%.

The record behind these values is patent publication US20240109978A1.
